Results as given in patent publication US20100028415A1.

Assays:
[1] = target: centromere B (UniProt P07199); assay: Luminex AtheNA Multi-Lyte ANA Test, 0.15 µg mab per test
[2] = target: histones; assay: as above
[3] = target: SS-A/Ro; assay: as above
[4] = target: Mab 4E10; assay: competition ELISA: gp140 (19.25-1230 nM) mixed with 10 µg/ml 4E10 MAb, added to wells with 1.35 µg cardiolipin

UniProt P07199, sequence (P07199 2-599 limits assumed): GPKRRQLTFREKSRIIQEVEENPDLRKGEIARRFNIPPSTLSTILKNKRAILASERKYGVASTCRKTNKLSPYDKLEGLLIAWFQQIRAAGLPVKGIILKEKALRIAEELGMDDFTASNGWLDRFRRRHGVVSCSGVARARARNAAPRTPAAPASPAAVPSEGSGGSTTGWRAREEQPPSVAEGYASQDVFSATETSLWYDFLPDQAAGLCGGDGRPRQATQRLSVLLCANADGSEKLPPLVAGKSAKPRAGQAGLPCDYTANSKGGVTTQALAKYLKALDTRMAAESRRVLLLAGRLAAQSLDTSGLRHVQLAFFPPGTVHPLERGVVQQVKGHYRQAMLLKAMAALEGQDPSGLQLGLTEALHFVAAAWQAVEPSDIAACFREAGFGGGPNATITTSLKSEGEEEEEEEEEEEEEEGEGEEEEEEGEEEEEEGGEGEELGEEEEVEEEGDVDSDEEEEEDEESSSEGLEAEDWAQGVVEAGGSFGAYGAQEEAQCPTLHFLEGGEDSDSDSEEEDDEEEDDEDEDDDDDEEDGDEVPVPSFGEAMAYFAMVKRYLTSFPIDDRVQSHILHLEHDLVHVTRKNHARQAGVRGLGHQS

Row | Substance | centromere B antibody value (relative units based on a standard curve) (relative units) [1] | histone antibody value (relative units based on a standard curve) (relative units) [2] | Ro (SSA) antibody value (relative units based on a standard curve) (relative units) [3] | IC50 [4] [nM]
1 | A32 (antibody) | 1130 |  |  | 
2 | Mab 2F5 (antibody) | 1780 | 1010 | 290 | 
3 | Mab 4E10 (antibody) |  |  | 221 | 
4 | Mab IgG1b12 (antibody) | 479 | 185 |  | 
5 | soluble HIV-1 Env gp140 oligomers (CON-S) |  |  |  | 145
